Measurements from US7601489.
Read-outs that look alike come from different tables or passages of the source.

Key:
[1] = target: T1, Ty1 VLP-associated reverse transcriptase (Saccharomyces cerevisiae Ty1 retrotransposon) (UniProt Q07163); settings: 100% incorporation with Mg2+; 22 C; 50% inhibition at Mn2+:Mg2+ ratio 8e-3
T1 sequence: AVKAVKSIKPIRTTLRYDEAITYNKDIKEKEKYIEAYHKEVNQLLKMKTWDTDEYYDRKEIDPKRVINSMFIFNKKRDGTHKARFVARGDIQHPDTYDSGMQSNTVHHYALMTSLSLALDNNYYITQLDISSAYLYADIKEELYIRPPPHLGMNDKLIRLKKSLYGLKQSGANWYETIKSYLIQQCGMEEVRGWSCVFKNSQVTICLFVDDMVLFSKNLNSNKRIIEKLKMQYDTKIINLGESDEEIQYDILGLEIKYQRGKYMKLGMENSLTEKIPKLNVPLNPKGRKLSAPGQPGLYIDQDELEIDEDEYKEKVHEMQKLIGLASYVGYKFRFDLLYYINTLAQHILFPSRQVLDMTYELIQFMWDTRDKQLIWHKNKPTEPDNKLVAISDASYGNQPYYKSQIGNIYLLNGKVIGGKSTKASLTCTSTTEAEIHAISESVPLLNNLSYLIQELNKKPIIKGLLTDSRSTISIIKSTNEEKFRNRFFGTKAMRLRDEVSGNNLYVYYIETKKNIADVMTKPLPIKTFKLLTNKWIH

[2] = target: T2, Ty1 reverse transcriptase D211N D211N (Saccharomyces cerevisiae Ty1 retrotransposon) (UniProt Q07163); settings: 22 C, 20 mM KCl, pH 7.8
T2 sequence: T1 sequence

[3] = target: T3, Ty1 reverse transcriptase (wild-type) (Saccharomyces cerevisiae Ty1 retrotransposon) (UniProt Q07163); settings: 22 C, 20 mM KCl, pH 7.8
T3 sequence: T1 sequence

[4] = target: HIV-1 reverse transcriptase (heterodimer) (HIV-1) (UniProt P04585+P04585); settings: 100% incorporation with Mg2+; 37 C; 50% inhibition at Mn2+:Mg2+ ratio 7e-4

Work on oligo(dG)12-18/poly(rC) primer-template yielded an activity (pmol dGTP/ul VLP per 60 min) [1] of 5, an activity ([2]; kcat with Mg2+, K0.5 Mg2+ 6.3 mM) of 1.6 h⁻¹ and an activity ([2]; kcat with Mn2+, K0.5 Mn2+ 0.02 mM) of 0.57 h⁻¹. It also gave an activity ([3]; kcat with Mg2+, K0.5 Mg2+ 0.13 mM) of 1.61 h⁻¹, an activity ([3]; kcat with Mn2+, K0.5 Mn2+ 19.9 mM) of 0.56 h⁻¹ and an activity (pmol dGTP/ug RT per 60 min) [4] of 205.
